Results as given in PMC5444840.
Where two headings read alike, the source gives them in different places.

How the values were obtained:
Assay in all cases: SPR; multi-cycle kinetics, Biacore X-100: rSgC or IgD amine-coupled on a CM4 chip; different chemokine concentrations at 30 ul/min, 180 s contact, 600 s dissociation, HBS-EP pH 7.4; global fit to a 1:1 Langmuir model
[1] = target: recombinant soluble VZV glycoprotein C ectodomain (VZV rSgC) (Varicella zoster virus, Dumas strain)
[2] = target: VZV gC IgD (amino acids P140 to V531, with the predicted immunoglobulin-like domains) (Varicella zoster virus, Dumas strain)
VZV gC IgD (amino acids P140 to V531, with the predicted immunoglobulin-like domains) (Varicella zoster virus, Dumas strain), sequence (P09256 171-562 limits assumed): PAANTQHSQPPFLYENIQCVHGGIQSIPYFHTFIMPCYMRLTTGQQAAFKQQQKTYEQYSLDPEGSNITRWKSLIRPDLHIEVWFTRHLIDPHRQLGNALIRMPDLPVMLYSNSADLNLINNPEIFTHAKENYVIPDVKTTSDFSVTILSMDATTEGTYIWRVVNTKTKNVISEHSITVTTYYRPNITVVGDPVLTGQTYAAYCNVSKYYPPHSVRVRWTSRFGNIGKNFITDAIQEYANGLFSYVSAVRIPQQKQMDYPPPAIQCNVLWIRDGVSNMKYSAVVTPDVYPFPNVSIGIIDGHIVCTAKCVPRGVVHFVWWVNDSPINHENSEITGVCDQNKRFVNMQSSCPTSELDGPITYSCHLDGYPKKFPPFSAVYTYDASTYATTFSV

[3] = target: recombinant soluble VZV glycoprotein C ectodomain (VZV rSgC) (Varicella zoster virus, Dumas strain); remark: listed apart in the source
[4] = target: VZV gC IgD (amino acids P140 to V531, with the predicted immunoglobulin-like domains) (Varicella zoster virus, Dumas strain); remark: listed apart in the source

recombinant soluble VZV glycoprotein C ectodomain (VZV rSgC) (Varicella zoster virus, Dumas strain), sequence (P09256 54-562 limits assumed): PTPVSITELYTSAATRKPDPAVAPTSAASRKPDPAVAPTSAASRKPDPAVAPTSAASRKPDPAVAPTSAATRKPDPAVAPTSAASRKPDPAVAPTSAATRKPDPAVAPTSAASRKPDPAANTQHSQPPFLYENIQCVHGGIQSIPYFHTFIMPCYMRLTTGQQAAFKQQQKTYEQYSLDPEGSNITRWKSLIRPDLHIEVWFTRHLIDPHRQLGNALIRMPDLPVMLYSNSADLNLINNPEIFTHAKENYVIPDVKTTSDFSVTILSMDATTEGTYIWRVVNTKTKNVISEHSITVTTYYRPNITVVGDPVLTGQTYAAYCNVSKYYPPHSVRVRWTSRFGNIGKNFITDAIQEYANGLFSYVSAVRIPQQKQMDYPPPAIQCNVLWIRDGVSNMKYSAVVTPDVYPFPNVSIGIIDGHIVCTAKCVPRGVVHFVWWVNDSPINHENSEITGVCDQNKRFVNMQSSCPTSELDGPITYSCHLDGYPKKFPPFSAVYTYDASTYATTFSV

## CCL13 (from UniProt Q99616 17-98) (ligand)
[1]
  Kd: 0.176 nM
  koff: 0.00184 s⁻¹
  kon: 1.04e+07 M⁻¹ s⁻¹
  t(1/2): 6.29 min
[2]
  Kd: 0.299 nM
  koff: 0.00389 s⁻¹
  kon: 1.3e+07 M⁻¹ s⁻¹
  t(1/2): 2.97 min

## CCL19 (from UniProt Q99731 22-98) (ligand)
[1]
  Kd: 0.138 nM
  koff: 0.00212 s⁻¹
  kon: 1.54e+07 M⁻¹ s⁻¹
  t(1/2): 5.46 min
[2]
  Kd: 0.118 nM
  koff: 0.00161 s⁻¹
  kon: 1.37e+07 M⁻¹ s⁻¹
  t(1/2): 7.18 min

## CCL2 (from UniProt P13500 24-99) (ligand)
[1]
  Kd: 5.84 nM
  koff: 0.00101 s⁻¹
  kon: 173000 M⁻¹ s⁻¹
  t(1/2): 11.4 min
[2]
  Kd: 6.05 nM
  koff: 0.0013 s⁻¹
  kon: 214000 M⁻¹ s⁻¹
  t(1/2): 8.91 min

B1: CXCL13 (ligand)
chain: VLEVYYTSLRCRCVQESSVFIPRRFIDRIQILPRGNGCPRKEIIVWKKNKSIVCVDPQAEWIQRMMEVLRKRSSSTLPVPVFKRKIP
[3]
  Kd: 0.422 nM
  koff: 0.00251 s⁻¹
  kon: 5.94e+06 M⁻¹ s⁻¹
  t(1/2): 4.61 min
[4]
  Kd: 0.567 nM
  koff: 0.0015 s⁻¹
  kon: 2.64e+06 M⁻¹ s⁻¹
  t(1/2): 7.72 min
